Patent US20250019442A1 (LANOVA MEDICINES, published 2025)
Where a chain is given by its changes, count along the chain named. One block for each binder: values may come before it.

What was measured:
cynomolgus PD1 = molecular target: T1, cynomolgus PD1 (cynomolgus, UniProt B0LAJ3 25-170); assay: ELISA, cynomolgus PD1 coated, anti-human IgG-HRP detection
T1 construct: Recombinant protein for ELISA; also called cynomolgus PD1 protein
Experimental: (§1) To evaluate PD1 binding activity of the test bispecific antibodies, human PD1 and cynomolgus PD1 diluted in PBS were coated on a microplate respectively at 4° C. overnight. Three-fold dilution of test antibodies starting from 100 nM were added to each well and incubated for 1 hours at 25° C. Then, the plates were washed with ELISA washing buffer (1×DPBS with 0.5% Tween-20) and incubated with peroxidase conjugated anti-human IgG secondary antibody for 60 minutes at 25° C. After washed four times with ELISA washing buffer, the plates were detected by TMB-ELISA substrate solution, then stopped by ELISA stopping solution and analyzed by microplate reader at OD450 nm.

[1] = molecular target: T2, human PD-1 overexpressed on cells (human, UniProt Q15116 25-288); assay: cell-based or functional assay
human PD1 = molecular target: T3, human PD1 (human, UniProt Q15116 25-167, limits assumed); assay: ELISA, human PD1 coated, anti-human IgG-HRP detection
T3 construct: Recombinant protein for ELISA; also called human PD1 protein
Experimental: as §1

[2] = molecular target: T2, human PD-1 overexpressed on cells; assay: flow cytometry on CHO-K1 cells overexpressing human PD-1, PE secondary antibody
Experimental: (§2) To further determine PD-1 binding activity of the bispecific antibodies, CHO-K1 cells overexpressing human PD-1 were incubated with different concentrations of anti-PD1-VEGF bispecific antibodies and reference antibodies at 4° C. for 30 minutes. Then, the cells were washed twice with FACS buffer and stained with PE conjugated secondary antibody at 4° C. for 30 minutes. After wash twice with FACS buffer, MFI of PE was analyzed by a NovoCyte flow cytometer.

[3] = molecular target: T2, human PD-1 overexpressed on cells; assay: flow cytometry on CHO-K1 cells overexpressing human PD-1; column headed OD450 but the text says MFI of PE; set-up: unit not given here
Experimental: as §2

T1 sequence (B0LAJ3 entry or part of it limits assumed, form in doubt): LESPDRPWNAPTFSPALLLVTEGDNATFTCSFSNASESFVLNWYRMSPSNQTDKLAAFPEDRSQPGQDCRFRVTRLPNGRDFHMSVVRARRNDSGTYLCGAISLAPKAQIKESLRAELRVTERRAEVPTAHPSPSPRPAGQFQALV
T2 sequence (Q15116 25-288): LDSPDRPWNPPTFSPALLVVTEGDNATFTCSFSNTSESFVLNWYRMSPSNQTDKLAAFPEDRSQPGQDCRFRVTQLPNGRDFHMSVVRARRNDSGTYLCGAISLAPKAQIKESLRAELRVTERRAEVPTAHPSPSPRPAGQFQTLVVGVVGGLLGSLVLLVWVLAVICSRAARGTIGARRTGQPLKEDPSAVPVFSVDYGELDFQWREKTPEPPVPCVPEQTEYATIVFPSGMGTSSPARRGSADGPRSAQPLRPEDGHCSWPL
T3 sequence (Q15116 25-167 limits assumed): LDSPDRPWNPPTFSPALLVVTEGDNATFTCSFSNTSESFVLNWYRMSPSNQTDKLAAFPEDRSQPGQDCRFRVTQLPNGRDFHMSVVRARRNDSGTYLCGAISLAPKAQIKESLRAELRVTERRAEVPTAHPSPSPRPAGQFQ

EC50 (cynomolgus PD1): 0.057 nM
Top (OD450) (cynomolgus PD1): 1.17 OD450
B1: Pembrolizumab (antibody, V domains shown)
VH: QVQLVQSGVEVKKPGASVKVSCKASGYTFTNYYMYWVRQAPGQGLEWMGGINPSNGGTNFNEKFKNRVTLTTDSSTTTAYMELKSLQFDDTAVYYCARRDYRFDMGFDYWGQGTTVTVSS
VL: EIVLTQSPATLSLSPGERATLSCRASKGVSTSGYSYLHWYQQKPGQAPRLLIYLASYLESGVPARFSGSGSGTDFTLTISSLEPEDFAVYYCQHSRDLPLTFGGGTKVEIKR

EC50 (nM), PD1 blocking activity (PD1 reporter gene assay) [1]: 11.2 nM
Top (RLU), PD1 blocking activity (PD1 reporter gene assay) [1]: 191000 RLU
EC50 (human PD1): 0.083 nM
Top (OD450) (human PD1): 1.75 OD450
EC50 (cynomolgus PD1): 0.151 nM
Top (OD450) (cynomolgus PD1): 1.56 OD450
EC50 [2]: 2.35 nM
Top (OD450) [3]: 963000
B2: VH18 (anti-PD-1 VHH) (VHH)
VHH: EVQLVESGGGLVQPGGSLRLSCAVSGNIYNRNFMGWFRQAPGKGREGVSAIYTGTSRTYYADSVKGRFTISRDNAKNTVYLQMNSLRPEDTAVYYCAADLRDGFWDTGVWNTWGQGTLVTVSS
notes: also called VH18 VHH; anti-PD1 parental antibody VH18

EC50 (nM), PD1 blocking activity (PD1 reporter gene assay) [1]: 13.3 nM
Top (RLU), PD1 blocking activity (PD1 reporter gene assay) [1]: 201000 RLU
EC50 [2]: 0.759 nM
Top (OD450) [3]: 448000
B3: VH8M1 (anti-PD-1 VHH) (VHH)
VHH: B2 VHH with R45L, A75S, P88A, D102E
notes: also called VH8M1 VHH; anti-PD-1 parental nanobody
